The source of these data is a protein production outcome set (Wang et al. 2014).

This data set in a line: label from the status in PepcDB records.

Consider “MSAGLTGIRVAVIGGDDREIYMIPELQKLGAYIVGVGFEKAAPIQGVTLLSSPLEAVEKADVLLFPMYGTDERGDVKAKYSETPIVLNKELLKAVSPKVPLFIGWARPALKSAAEMLGIQIVETANLDQLAILNSIPSAEGAIQMAMEASPITIHGSESFVLGLGRCGWTLARTLKGMGAHVTGVARKPADLARALEMGLEAVHFADLDEKIGKAELIFNTVPHLILDKVMLEQVNHEAVIIDIASLPGGTDFEYAKAKGIKAMLAPGLPGKVAPKAAGKILAQVYPQLILRHLTTKNASLKF”, for which the protein production entry was “failed”.

Turning to “MSAKDLPNGGPRLIDRYLLRLLLWPLAACLGVTVIALLLERILRLLDVLSQSSARFGYVAQLAANLVPHYLGLALPVAFFVALFIVIVKLSDGSEIDALLASGQSLERIAAPFVAVGVLLSVFSIIVFGYMQPYSRYAYRAVMHAAVNAGWNGRLAGGAFIDDKGSLLTADSADIAGQRLTRVFIRRLDAKGQEEIITAASADLKMDPDGKTITMDLRDGRRIAHDAYGTYRNLAFTSLTTQTPLSAAAVLLRDRGGDERELTMGELRREAKSPDPVVSKGTLLSEFYGRLARAAFLPFLPLLAFPLGLASKRGNRAPGLIMAGLLLLAFQHSLLLGQGMAKAGKADAFAAIWIPFTLFAALSVWLFVGSRTRPGDTPVSRLVRRINTLVTHALRLLPQPKKRQAA”, the protein production result is “failed”.

Consider “MSAPFHSALLDALNQRVVIGDGAMGTMLQAADLTLDDFLGLEGCNEILNDTRPDVLKDIHRAYFEAGADAVETNTFGCNLPNLADYDISDRIRELAEKGTRLARDVADEMGPGRDGMGRFVLGSMGPGTKLPTLGHAPFAILRDAYAEAAMGMIDGGADAILVETCQDLLQVKAAILGSQRAMETLGSRLPIITHVTVETTGTMLLGSEIGAALTALEPLGIDMIGLNCATGPAEMSEHLRHLSKYSSLPVSVMPNAGLPQLGPNGAEYPLTAEELAEALSGFVTEFGLGLVGGCCGTTPEHIRQVAEAVRLVEKAERNPVHESGTSSLYTAVPFQQDASILMIGERTNTNGSKAF”, for which the protein production result was “failed”.

On to “MSAPHDSHTLINVLTLNAHMGFDLLKRRFILAALREAIREVCAEIVCLQEVLGEHALHARRHAQWPAVAHYEYLAEMLWPQFSYGRNAVYPHGHHGNAVLSKFPISSFANHDVSVPGHEPRGVLHAVLQVPGWSEELQVFCVHLGLHEAHRQQQIGLLCARVAALSADAPVVVAGDFNDWRARGHPLLTRCGLVEAVECMHGRVARSFPSRFPVLPLDRIYLRNLRVVQARVLSGLPWSRLSDHLPLLASIAP”, for which the protein production result is given as “failed”.

With “MSAPIEQPAWTKRMNANPQSQAAPVSAAQQDLQRLRTHLNTQIIGQSDLVDAMLIALLADGHMLVEGAPGLAKTRAIHVLSRGVEADFQRIQFTPDLLPADLTGTEVYRPQDGSFHFQPGPLFHNLVLADEINRSPAKVQSALLEAMAERQITVGRKTYPLPALFLVMATQNPIEQEGTYPLPEAQLDRFLMYVRIGYPGAEQEKAILRLVRGEAGRPECRAAEAMEPVSQQTLFSAREEVLGVYLAEALEDYLLQLILATREPARYGDSLARWILYGVSPRATLALDRCARARAWLDGRDYVTPDDIQALAPAILRHRLILSYEAEAEGVSSDQVVKDLLRRIAVP”, the protein production result was “failed”.

“MSAPLFSVVVPAYNQHKFIDSCLTSLQRQTLTDFEVFVVDDCSTDDTGEQIAALIKGDDRFHVITHAHNRGVSAARNSGMAAAKGKYLCFVDGDDWVEPDFLATFLAAYRSAPDTQLVVCGHYGYLAVPSPAKTYNQKDLIANINFGTVGGFSWNKAFIRSIITTHHLKFNEDIDFLEDQLFAFRYANYVQSSEYVPDRTYHYRWRFRSNLAHIGIPFFTARRKMMKILKQENKQVLNEDWNNQLEHHHHHH”: the protein production entry was “failed”.

With “MSAPQAPSAPHSPPDVPVMQVIFGLMLAIMLGALEQSIVAVVLPEIALQLNGFEDMAWVISAYLVASTVVTPIYGKLSDVLGRRSVLTFSIVLFVLASIACAMATTMPMLIVARILQGLGGGGLISVSQATIADVVPLRERGKYQGYVSGVWAVASMAGPVIGGYLAHFLSWRWIFWINIPLGLIALIVVRRALRHLPVSGRKHRIDYLGALLFGGGLSGVLVFLTRMGQGHSPLEPQTIGLLAAGLIGLVLFIWQERRAVDPVIPLKMLAVPTVAICCLTLFLCFFQLIAMSVLLPLRFQVVGGAGADTAALRLVPLTLAIPFGAYASGRLMSWSGRYKPLQLAGCLVAPIAIVGLAFVPPQAVVPAALVMIVLGLSIGLQLPSGLVATQNSVPPQQVGIATALTAFSRLLGGAVGVAVLTTVLIALLRHSGMAVSDLHGGEDVLMSMFRRAMDAGDQGDAAAVREAAEHAFRLLFLMSAGVSLIAPFFVMRLKEKTLRGSPAGAAASAAAE”, the protein production result is reported as “failed”.

Regarding “MSAPSDTPTYLHGFSATEQARLLKQARLLETTLFNQIDYSGARRLLEVGSGVGAQTEILLRRFPELHVTGVDLSETQLDAARANLERLAWCRARYTLQQADASDLPFEARQFDAAFLCWVLEHVPSPARVLNEVRRVLLPGSPVYVTEVMNASFLLHPYSPSLWRYWMAFNDFQHDQGGDPFVGAKLGNLLLAGGFRDVHTQIKTLHLDNREPGRRKTMIGFWEEVLLSAADQLLQAGAVEAATVDGMRRELAQVHSDPDAVFFYSFVQARATVY”, the protein production result is recorded as “failed”.

Regarding “MSAQKQEKTNVFLDPSKNEAYFKKRVGMGESFDLGVRKVFILGHEVQLYYVNGLCDTQYIIHLLRELVHLNDKEKESGEVEDIVENRLLNQQVSKAETLDEAVDQVLSGLVAIIVEDAGFAFIIDVRSYPGRTPEEPDTEKVVRGARDGLVENIIVNTALIRRRIRDERLRYKMLHIGERSKTDICLCYLEDVADPDLVEVLKKEIEDVKIDGLPMSDKSVEEFLVGQGYNPFPLVRFTERADVAASHILEGHVIVIVDTSPSVIITPTTLFHHVQHAEEYRQTPAVGTFLRWVRFFGILASTFLLPLWLLFVIHPSLLPDNLSFIGLNKDTHIPIIMQIFLADLGVEFLRMAAIHTPTALSTAMGLIAAVLIGDIAINVGLFSPEVILYVSLSAIGAYTTPSYELSLANKMVKLFMLILVALFKVEGFVIGLTILTIVMTSIRSLRTPYLWPLLPFNGKAFWHVLVRTSVPGGKVRPSIVHPRNRSRQP”, the protein production entry is given as “failed”.

As for “MSARLDAQIAFLKQADRLKSVERANVLLDLSRPENSAEHSWHLALWALVLSPFAAPDVDVDRAIRMLLLHDLVEIETGDHPIHEVTDWQAVERAERAAARKLFGLLPPDQAADFHTLWTEFDADETADARYAKMLDRCQPMFQVLCADTPRPDHVEVVRENLSSGRAAYLAEAFPEAHAHARALLERHPPVTGGFGDRLEFLAEADRLKTVLRASRLMDDSRFENSAEHSWHIMLYAWVLGEYAAAPVDIDRVLRMLLLHDLVEIDAGDNPIHGNVDHAAQEALEAAAAERLFGLLPPDQGAGLRAIWQEFETAQSADALFGKAVDRVQTPIANLENGGGSWVTYDVSLQQLVARVGTPVSRGAPGLWDWLFPQLSDCFTRLGLRLLEHHHHHH”, the protein production entry is reported as “not failed”.

Consider “MSASAVHSLWTTAADPISKIDAPKIEYGQLSPTLIVIGAALVGVLVEAFVPRKSRYYAQVFVSVVALAAAFAAVVALAAGGYGTTKAHIAAMGAIAVDGPALFLQGTILLAGLLGVFTFAERRLDPEVHGNRVDSFAAQAASVPGSDSEKAAVKAGFTTTEVFPLLLFAVGGMLIFPSANDLLTLFVALEVFSLPLYLLCAVARRKRLMSQEAAVKYFLLGAFASAFTLFGIALLYGYAGSMSYATIAQVVDGTVQNVDPALAGTMGNDALLLVGAAMLVMGLLFKVGAVPFHMWTPDVYQGAPTPVTGFMAAATKVAAFGALLRLLYVVLPGLRWDWRPVMWAVAIVTMLGGAIVAITQTDIKRLLAYSSIAHAGFILAGVIATTPDGVSSVLFYLGAYSFVTIGAFAVVTLVRDAGGEATHLSKWAGLGRRSPLVAAVFAVFLLAFAGIPLTSGFAGKFAVFKAAAEGGAAPLVVVGVISSAIAAFFYIRVIVLMFFSEPRPEGPTVAVPSPLTTTVIGVGVVVTLVLGVAPQYFLDLAG”, for which the protein production entry is “failed”.

As to “MSASVKESLQLQLLEMEMLFSMFPNQGEVKLEDVNALTNIKRYLEGTREALPPKIEFVITLQIEEPKVKIDLQVTMPHSYPYLALQLFGRSSELDRHQQLLLNKGLTSYIGTFDPGELCVCAAIQWLQDNSASYFLNRKLV”, the protein production result was “not failed”.

Turning to “MSASVLSDPTMLISTPEVILVSPVSVTQISGDEPDSVTCDCCGLTEECTQSYIEMVRERYMGKWICGLCSEAVKYEVMRTKRLLTTEEAMARHMNMCNKFKSSSPPPNPTGHLISAMRQILRKSLDSPRMLRSMPNSPSKDDQDHHHDCVSNVLSRSDSCFASLT”, the protein production entry is listed as “failed”.

Regarding “MSATAAARKRGKPASGAGAGAGAGKRRRKADSAGDRGKSKGGGKMNEEISSDSESESLAPRKPEEEEEEELEETAQEKKLRLAKLYLEQLRQQEEEKAEARAFEEDQVAGRLKEDVLEQRGRLQKLVAKEIQAPASADIRVLRGHQLSITCLVVTPDDSAIFSAAKDCSIIKWSVESGRKLHVIPRAKKGAEGKPPGHSSHVLCMAISSDGKYLASGDRSKLILIWEAQSCQHLYTFTGHRDAVSGLAFRRGTHQLYSTSHDRSVKVWNVAENSYVETLFGHQDAVAALDALSRECCVTAGGRDGTVRVWKIPEESQLVFYGHQGSIDCIHLINEEHMVSGADDGSVALWGLSKKRPLALQREAHGLRGEPGLEQPFWISSVAALLNTDLVATGSHSSCVRLWQCGEGFRQLDLLCDIPLVGFINSLKFSSSGDFLVAGVGQEHRLGRWWRIKEARNSVCIIPLRRVPVPPAAGS”, the protein production result is on record as “failed”.

As for “MSAYDNVIGGKLKLKGKALDVKAGGVKKKKKHKRQEEQALKITDHELIEGESTEALGKLIEGEEGDEEMNRSEKASEDAKLQQQLDDDDHLTPAERRYIEQKQRLDVQKLAKEANKSHRNRIEDFNQYLANMSEHYDIPKVGPG”, the protein production result was “failed”.

Take “MSCKKTEKFSETWFFKWILNNQAVVSFLILLLIGLTVLIFTKISPIFSPVIQFLTIVMLPLVISMLLYYLIKPLVLLVERTGLNRTMSILVIYAILALLLVWGISTAIPNLQDQILILLRNAPSYISRANSETERWLKLPILSNFHGDLEAMLSDFSARMINYAENFSTSALSWIGTFASTVARVTVAIILTPFILFYLLRDSQKLKHSFVSALPTRFRETTVRMLSDINNQLEGYVRGQVTVAIVIAIMFCIMFKIVGLRYGMTFGILAGFLNMIPYLGSFIAMVPVVIMGLVQGPTMLIKVLIIFVIEQTIEGRFVSPLVLGNKLSIHPITIMFILLTAGSLYGVWGVLLGIPIYASVKVIVKDIFDWYRSVSNLYQDDIEIKGQKYDVK”: the protein production entry is “failed”.

Take “MSDAETLSVYAAKADDYANLTDEAAARDPSLVAFIAAMPKRGRVLDLGCGPGGSAAAMARAGLVVDAFDPVPEMVALAGRHAGVSARKAGFEDVTQVDHYDGIWANFSLLHAPRDDMPKHLARIATALKPGGRFHIGVKTGTGSKRDTLGRRYTYYSESELVDLLAAAGLTVFDRREGCDTGLDGVDAHWIVLAAHA”: the protein production entry is “failed”.

Turning to “MSDALINGLAGAGGGIIAQLLTYPLQTVNTRQQTERDLKREKRKLGTIEHMCQVVKQEGWERLYGGLAPSLAGTAASQGVYYYFYQVFRNRAEATALARKKKGLGDGSVGMFASLLVAAFAGSVNVLMTNPIWVIVTRMQTHRKMTKDQTAAPESPSSNAEALVAVEPRPYGTFNTIREVYDEAGITGFWKGVIPTLIMVSNPSMQFMLYETMLTKLKKKRALKGSNNVTALETFLLGAVAKLGATVTTYPLLVVKSRLQAKQVTTGDKRQQYKGTLDAILKMIRYEGLYGFYKGMSTKIVQSVLAAAVLFMIKEELVKGAKLLLSNATSS”, the protein production entry was “failed”.
